Data: US20080064629A1, “Amphiregulin as a Protective Agent in Acute Hepatic Injury” (priority 2004, published 2008)

Key:
[1] = tested on: male C57/BL6 mice; assay: Acute liver damage induced by Jo2 antibody (Fas activation) in mice, treatment with AR; type: in vivo, mouse
Experimental: The experiments were carried out in compliance with the guidelines of the University of Navarra relating to the use of laboratory animals. Cirrhosis was induced with CCl4 in male Wistar rats as described elsewhere [(16) Castilla-Cortazar, I., Garcia, M., Muguerza, B., Quiroga, J., Perez, R., Santidrian, S., Prieto, J. 1997. Hepatoprotective effects of insulin-like growth factor I in rats with carbon tetrachloride-induced cirrhosis. Gastroenterology 113:1682-1691). Two-thirds PH or sham operations were performed on male Wistar rats (150 g) and male C57/BL6 mice (20 g) according to the method of Higgins and Andersen [(17) Higgins, G. M., Andersen, R. M. 1931. Experimental pathology of liver: restoration of liver of the white rat following partial surgical removal. Arch. Pathol. 12:186-202. (18) Latasa, M. U., Boukaba, A., García-Trevijano, E. R., Torres, L., Rodríguez, J. L., Caballería, J., Lu, S. C., López-Rodas, G., Franco, L., Mato, J. M., et al. 2001. Hepatocyte growth factor induces MAT2A expression and histone acetylation in rat hepatocytes. Role in liver regeneration. FASEB J. 10.1096/fj.00-0556fje. (19) Chen, L., Zeng, Y., Yang, H., Lee, T. D., French, S. W., Corrales, F. J., García-Trevijano, E. R., Avila, M. A., Mato, J. M., and Lu, S. C. 2004. Impaired liver regeneration in mice lacking methionine adenosyltransferase 1A. FASEB J. 18: 914-916]. Following sedation, in the sham operated animals the liver was exposed and then returned to the abdominal cavity. Acute liver damage was induced in male C57/BL6 mice (20 g) (n=3-5 per condition and time point) by means of a single intraperitoneal injection of CCl4 (1 μl/g body weight in olive oil) (Sigma, St. Louis, Mo., USA) or Jo2 monoclonal antibody (4 μg/mouse in saline solution) (BD PharMingen, San Diego, Calif., USA) [(5),(20) Martínez-Chantar, M. L., Corrales, F. J., Martínez-Cruz, A., García-Trevijano, E. R., Huang, Z. Z., Chen, L. X., Kanel, G., Avila, M. A., Mato, J. M., Lu, S. C. 2002. Spontaneous oxidative stress and liver tumors in mice lacking methionine adenosyltransferase 1A. FASEB J. 10.1096/fj.02-0078fje]. The controls received an equivalent volume of olive oil or saline solution. In the cases indicated, the mice received an intraperitoneal injection of human recombinant AR (9.5 μg/mouse) (Sigma) 6 and 0.5 h before and 3 h after Jo2 antibody, or 0.5 h before and 12 h after CCl4. At the indicated timepoints, mice were subjected to blood sampling and the sera were analysed for alanine and aspartate aminotransferase (ALT and AST) as described elsewhere [(16) and (21) Lasarte, J. J., Sarobe, P., Boya, P., Casares, N., Arribillaga, L., López-Díaz of Cerio, A., Gorraiz, M., Borrás-Cuesta, F., Prieto, J. 2003. A recombinant adenovirus encoding hepatitis C virus core and E1 proteins protects mice against cytokine-induced liver damage. Hepatology 37: 461-470]. Mice were sacrificed by cervical dislocation, and the livers were quickly frozen in liquid nitrogen, or fixed in formalin and embedded in paraffin for staining with hematoxylin and eosin (H&E).
Caspase-3 activity in mouse hepatocytes and liver tissue lysates was assessed using the Caspase-3/CPP32 colorimetric assay kit (BioVision, Palo Alto, Calif., USA). Cells in culture (5×10^5 per condition) were lysed directly in the lysis buffer supplied with the kit after the corresponding treatments. Liver tissue was homogenized using a Dounce homogenizer in lysis buffer, followed by centrifugation at 15,000 rpm during 10 min. […]

[2] = tested on: cultured mouse hepatocytes; assay: Antiapoptotic signaling pathways (Western blot of phosphorylation) in cultured mouse hepatocytes; type: cell-based; conditions: AR 20 nM, different times
Experimental: Hepatocytes were isolated from male Wistar rats (150 g) and C57/BL6 mice (20 g) by perfusion with collagenase (Gibco-BRL, Paisley, UK) as described elsewhere [(18), (20)]. Cells (5×10^5 cells per well) were plated onto 6-well plates coated with collagen (type I collagen, Collaborative Biomedical, Bedford, Mass., USA). Cultures were maintained in MEM medium supplemented with 10% fetal calf serum (FCS), non-essential amino acids, glutamine 2 mM and antibiotics (all supplied by Gibco-BRL). After 2 h of incubation, the medium was removed and cells were again cultured in the same medium with 5% FCS. Where applicable, hepatocytes were treated with IL-1β or TNFα from Roche (Mannheim, Germany), HGF or forskolin from Calbiochem (San Diego, Calif., USA), IL6 from RD Systems (Wiesbaden-Nordenstadt, Germany), or PGE2 from Alexis QBiogene (Carlsbad, Calif., USA).
Homogenates from liver samples and isolated hepatocytes were subjected to Western blot analysis as described elsewhere [(19, (20)]. Antibodies used were: affinity purified and biotinylated polyclonal antibody specifically targeted to murine AR (BAF989)(RD Systems); specific antibodies for the p17 subunit of active caspase-3 (9664S), phosphorylated Akt (Ser473) (9271S) and phosphorylated STAT3 (Tyr^705) (9131S) (Cell Signaling, Beverly, Mass., USA); ERK1/2 (06-182), phosphorylated EGF-R (Tyr^1173)(05-483) and STAT3 (06-596)(Upstate Biotechnology, Charlottesville, Va., USA). All other antibodies were from Santa Cruz Biotechnology (Santa Cruz, Calif., USA): BclxL (sc8392), Bcl2 (sc7382), EGF-R (sc-03), phosphorylated ERK1/2 (Tyr^204) (sc7383), Akt (sc5298), JNK (sc571), and phosphorylated JNK (Thr^183/Tyr^185) (sc6254).

B1: amphiregulin (protein)
chain: SVRVEQVVKPPQNKTESENTSDKPKRKKKGGKNGKNRRNRKKKNPCNAEFQNFCIHGECKYIEHLEAVTCKCQQEYFGERCGEKSMKTHSMIDSSLSK
notes: polypeptide growth factor belonging to the EGF family, ligand of EGF receptor; human recombinant AR (Sigma) used
For B1, the “serum transaminase (AST and ALT) elevation” value ([1]; 12 h after Jo2 (4 μg/mouse i.p.), AR 9.5 μg/mouse i.p. 6 and 0.5 h before and 3 h after Jo2) was “strongly suppressed”, the “liver damage by histopathological analysis” value ([1]; 12 h after Jo2, AR 9.5 μg/mouse i.p. 6 and 0.5 h before and 3 h after Jo2) was “almost completely avoided liver damage” and the “induction of caspase-3 activity in mouse liver extracts” value ([1]; 12 h after Jo2 injection, AR 9.5 μg/mouse i.p.) was “strongly inhibited”. The “levels of Bcl-xL protein in liver (Western blot)” value ([1]; AR and Jo2 versus Jo2 alone, 6 h after injection of Jo2, 12 h (figure legend)) was “greater”, the “rupture of caspase-3 (p17 subunit of active caspase-3, Western blot) in liver” value ([1]; liver extracts after Jo2 injection, AR 9.5 μg/mouse i.p.) was “avoided” and the “phosphorylation of Akt” value [2] was “increased phosphorylation”. For the same molecule, the “phosphorylation of ERK1/2” value [2] was “increased phosphorylation” and the “phosphorylation of STAT3” value [2] was “stimulate phosphorylation”.
